The chains are these.
B3: WHRN NPDZ12 (domain or fragment, UniProt Q9P202 33-377, looked up)
chain: RLLSANVRQLHQALTALLSEAEREQFTHCLNAYHARRNVFDLVRTLRVLLDSPVKRRLLPMLRLVIPRSDQLLFDQYTAEGLYLPATTPYRQPAWGGPDSAGPGEVRLVSLRRAKAHEGLGFSIRGGSEHGVGIYVSLVEPGSLAEKEGLRVGDQILRVNDKSLARVTHAEAVKALKGSKKLVLSVYSAGRIPGGYVTNHIYTWVDPQGRSISPPSGLPQPHGGALRQQEGDRRSTLHLLQGGDEKKVNLVLGDGRSLGLTIRGGAEYGLGIYITGVDPGSEAEGSGLKVGDQILEVNGRSFLNILHDEAVRLLKSSRHLILTVKDVGRLPHARTTVDETKWIAS
notes: WHRN, residues 33-377 (NTD, PDZ1 and PDZ2) of UniProtKB Q9P202; Cloned into pET.32M.3C; Named Trx-WHRN NPDZ12 in SEC-MALS; also called Trx-WHRN NPDZ12; Whirlin; source: E. coli BL21 (DE3), purified (Ni2+-NTA, size-exclusion chromatography); not shown: Trx, N-terminal, kept

Series [1] has as its target B3. Kind of series: ITC; MicroCal iTC200, 25 °C; 50 mM tris pH 7.5-8.0, 300 mM NaCl, 1 mM DTT, 1 mM EDTA; cell 20–50 µM, syringe 400–800 µM; one-site binding model.
The target of a further series is T1, PDZD7 PDZ12 M285R (UniProt E9Q9W7 84-289, M285R).
T1 sequence: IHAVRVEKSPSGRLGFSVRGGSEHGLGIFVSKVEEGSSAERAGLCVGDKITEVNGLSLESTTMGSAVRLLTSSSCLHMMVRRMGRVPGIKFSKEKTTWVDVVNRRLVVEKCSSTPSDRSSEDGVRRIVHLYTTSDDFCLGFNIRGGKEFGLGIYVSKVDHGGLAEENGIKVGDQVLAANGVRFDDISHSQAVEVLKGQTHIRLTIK
Kind of series: ITC. In general terms: Isothermal titration calorimetry measures the heat released or taken up as one component is titrated into another.

Another series concerns the target T2, PDZD7 PDZ12 G228R (UniProt E9Q9W7 84-289, G228R).
T2 sequence: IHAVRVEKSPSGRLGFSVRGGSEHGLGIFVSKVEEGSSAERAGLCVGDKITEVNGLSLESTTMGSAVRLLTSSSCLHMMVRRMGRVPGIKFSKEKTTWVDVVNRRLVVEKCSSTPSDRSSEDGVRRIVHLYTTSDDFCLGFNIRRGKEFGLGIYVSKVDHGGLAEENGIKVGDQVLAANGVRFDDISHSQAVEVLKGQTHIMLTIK
Kind of series: ITC.

For a further series, the target named is PDZD7 PDZ12 (UniProt E9Q9W7). Kind of series: ITC; MicroCal iTC200, 25 °C; 50 mM tris pH 7.5-8.0, 300 mM NaCl, 1 mM DTT, 1 mM EDTA; cell 20–50 µM, syringe 400–800 µM; one-site binding model.
In a further series the target is PDZD7 PDZ1 (UniProt E9Q9W7). Described as above.
Series [2] deals with B3. Kind of series: SEC-MALS; mixtures, each component around 30 µM; Superose 12 10/300 GL or Superdex 200 increase 10/300 GL; 50 mM tris, 300 mM NaCl, 1 mM DTT, 1 mM EDTA.
The target of a further series is T3, WHRN NPDZ12 A64D (UniProt Q9P202 33-377, A64D).
T3 construct: WHRN, residues 33-377 of UniProtKB Q9P202 with the deafness-related mutation A64D; Mutant made by PCR-based mutagenesis; the ClinVar ids are tied to the mutations by their printed order; source: E. coli BL21 (DE3), purified (Ni2+-NTA, size-exclusion chromatography)
T3 sequence (looked up): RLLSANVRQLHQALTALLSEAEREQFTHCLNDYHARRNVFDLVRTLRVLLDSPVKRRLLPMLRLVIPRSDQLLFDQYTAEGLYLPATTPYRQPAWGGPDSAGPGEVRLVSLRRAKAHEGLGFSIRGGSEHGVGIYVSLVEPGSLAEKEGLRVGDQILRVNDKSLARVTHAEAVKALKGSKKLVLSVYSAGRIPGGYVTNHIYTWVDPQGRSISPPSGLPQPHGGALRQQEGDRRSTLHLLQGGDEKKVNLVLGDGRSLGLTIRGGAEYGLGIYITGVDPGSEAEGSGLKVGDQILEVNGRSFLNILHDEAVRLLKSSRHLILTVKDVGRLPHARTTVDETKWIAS
Kind of series: ITC; MicroCal iTC200, 25 °C; 50 mM tris pH 7.5-8.0, 300 mM NaCl, 1 mM DTT, 1 mM EDTA; cell 20–50 µM, syringe 400–800 µM; one-site binding model.

The target of another series is T4, WHRN NPDZ12 R223H (UniProt Q9P202 33-377, R223H).
T4 construct: WHRN, residues 33-377 of UniProtKB Q9P202 with the deafness-related mutation R223H; source: E. coli BL21 (DE3), purified (Ni2+-NTA, size-exclusion chromatography)
T4 sequence (looked up): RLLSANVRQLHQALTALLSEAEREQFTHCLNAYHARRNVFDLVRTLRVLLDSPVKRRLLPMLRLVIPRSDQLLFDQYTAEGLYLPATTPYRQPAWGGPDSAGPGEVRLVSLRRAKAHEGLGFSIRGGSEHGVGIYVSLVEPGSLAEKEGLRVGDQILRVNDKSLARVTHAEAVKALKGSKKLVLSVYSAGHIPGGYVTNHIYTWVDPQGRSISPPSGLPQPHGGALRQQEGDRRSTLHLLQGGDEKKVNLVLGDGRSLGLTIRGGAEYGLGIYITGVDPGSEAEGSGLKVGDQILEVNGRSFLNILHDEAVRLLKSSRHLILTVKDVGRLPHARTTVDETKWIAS
The description is as above.

The target of a further series is T5, WHRN NPDZ12 T110A (UniProt Q9P202 33-377, T110A).
T5 construct: WHRN, residues 33-377 of UniProtKB Q9P202 with the deafness-related mutation T110A; source: E. coli BL21 (DE3), purified (Ni2+-NTA, size-exclusion chromatography)
T5 sequence (looked up): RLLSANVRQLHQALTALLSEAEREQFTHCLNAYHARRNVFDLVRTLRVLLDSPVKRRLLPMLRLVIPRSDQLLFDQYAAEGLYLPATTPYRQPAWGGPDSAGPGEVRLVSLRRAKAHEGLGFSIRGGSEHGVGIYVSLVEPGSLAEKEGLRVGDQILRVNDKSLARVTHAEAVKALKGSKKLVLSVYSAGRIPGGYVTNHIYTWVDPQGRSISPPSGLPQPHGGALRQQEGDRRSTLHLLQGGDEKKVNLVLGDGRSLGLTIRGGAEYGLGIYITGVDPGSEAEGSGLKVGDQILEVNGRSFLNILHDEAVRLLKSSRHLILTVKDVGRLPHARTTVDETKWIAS
The description is as above.

The target in series [3] is T6, WHRN NPDZ1 (UniProt Q9P202 33-239).
T6 chain: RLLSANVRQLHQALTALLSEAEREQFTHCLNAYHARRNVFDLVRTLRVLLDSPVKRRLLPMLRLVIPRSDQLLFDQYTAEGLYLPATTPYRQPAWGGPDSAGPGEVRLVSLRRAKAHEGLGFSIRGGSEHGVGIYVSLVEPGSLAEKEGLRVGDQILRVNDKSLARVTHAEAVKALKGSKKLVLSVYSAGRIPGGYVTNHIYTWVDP
Described as above.

The target in another series is WHRN PDZ1 (UniProt Q9P202). The series is described as above.
In the next series the target is USH2A-CT (UniProt Q2QI47). Kind of series: SEC-MALS; single proteins at 50 μM; Superose 12 10/300 GL or Superdex 200 increase 10/300 GL; 50 mM tris, 300 mM NaCl, 1 mM DTT, 1 mM EDTA. (In general: In gel filtration, larger molecules generally elute earlier.)
The next series deals with T7, WHRN NTD (UniProt Q9P202 33-117).
T7 chain: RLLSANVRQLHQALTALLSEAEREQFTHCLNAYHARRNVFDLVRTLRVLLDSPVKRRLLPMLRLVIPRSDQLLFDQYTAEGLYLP
Kind of series: ITC.

The target of series [4] is T6, WHRN NPDZ1. Kind of series: ITC.
Series [5] deals with the molecule itself. Kind of series: SEC-MALS; single proteins at 50 μM; Superose 12 10/300 GL or Superdex 200 increase 10/300 GL; 50 mM tris, 300 mM NaCl, 1 mM DTT, 1 mM EDTA.

Several values for one entry are separate records, joined by “and”; a condition that tells them apart may be missing. Identical values can stand only once. Like-named read-outs stand apart in the source and are kept apart here.

A word on the Kd: it is the concentration at which binding is half-saturated. Usually stoichiometry N stands for a count of units in the complex or per binding partner.

PDZD7 PDZ1, sequence (E9Q9W7 81-167): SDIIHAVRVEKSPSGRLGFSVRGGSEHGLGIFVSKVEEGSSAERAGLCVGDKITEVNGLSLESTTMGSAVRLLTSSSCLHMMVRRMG

As for “ADGRV1-CT △PBM (from UniProt Q8VHN7 6239-6298) (domain or fragment)”, the Kd in the series with WHRN NPDZ12 [1] was 9.5 µM.

GHSSGLYVDEEELMNAIKGFSSVTKEHTAFTDTHL (domain or fragment) [USH2A-CT (Short, S)]: the Kd is 8.5 µM with PDZD7 PDZ12 M285R; 56 µM with PDZD7 PDZ12 G228R; 15 µM with PDZD7 PDZ12; 66 µM with PDZD7 PDZ1; 5.5 µM with WHRN NPDZ12 A64D; 4.7 µM in the series with WHRN NPDZ12 R223H. Also, the Kd with WHRN NPDZ12 T110A turned out to be 16 µM; with WHRN NPDZ12 [1], 2.7 µM. In addition, the stoichiometry N (copies per WHRN dimer) with WHRN NPDZ12 [2] came out at 2. Besides, in the series with WHRN NPDZ12 [2] (scale: copy per WHRN dimer), the stoichiometry N is 1.

B1: USH2A-CT (domain or fragment)
chain: PSQSQLSHAYSQSSLHRSVSQLMDMADKKVVTEDSLWETIMGHSSGLYVDEEELMNAIKGFSSVTKEHTAFTDTHL
For B1, the Kd with WHRN NPDZ1 [3] came to 5.1 µM; with WHRN PDZ1, 1.2 µM; with WHRN NPDZ12 [1], 0.68 µM; with WHRN NTD, 19 µM. This molecule registered a stoichiometry N with USH2A-CT of 2.

B2: ADGRV1-CT (domain or fragment, UniProt Q8VHN7 6239-6298, looked up)
chain: GSLIADEESQEFDDLIFALKTGAGLSVSDNESGQGSQEGGTLTDSQIVELRRIPIADTHL
notes: ADGRV1 cytoplasmic region, residues 6239-6298 of UniProtKB Q8VHN7; Named Trx-ADGRV1-CT in SEC-MALS; also called Trx-ADGRV1-CT; VLGR1-CT; source: E. coli BL21 (DE3), purified (Ni2+-NTA, size-exclusion chromatography); not shown: Trx, N-terminal, kept
For the molecule B2, the “stoichiometry N” value with WHRN NPDZ12 [2] (both partners purified) was 2 copies per WHRN dimer and 1 copy per WHRN dimer (three proteins mixed). Besides, the Kd is 0.41 µM with WHRN NPDZ12 A64D (both partners purified); 3.3 µM in the series with WHRN NPDZ12 R223H (both partners purified); 0.55 µM with WHRN NPDZ12 T110A (both partners purified); around 1.4 µM in the series with WHRN NPDZ12 [1] (both partners purified); 31 µM with WHRN NTD; 9 µM in the series with WHRN NPDZ1 [4].

In the case of B3, in [5], the “stoichiometry N” value was found to be 2.

B4: WHRN NTD (domain or fragment, UniProt Q9P202 33-117, looked up)
chain: RLLSANVRQLHQALTALLSEAEREQFTHCLNAYHARRNVFDLVRTLRVLLDSPVKRRLLPMLRLVIPRSDQLLFDQYTAEGLYLP
notes: WHRN N-terminal domain, residues 33-117 of UniProtKB Q9P202; also called N-terminal domain; HHD1; source: E. coli BL21 (DE3), purified (Ni2+-NTA, size-exclusion chromatography)
For B4, the binding result in series [5] is reported as “binds”.

The record behind these values is publication PMC10039067, “Temporal and spatial assembly of inner ear hair cell ankle link condensate through phase separation” (Nature Communications, 2023).
